Columns and labels:
Conditions in all cases: tags: R&D Systems; chain copies: 2
NT-4 (neurotrophin-4) = target: T1, NT-4 (neurotrophin-4) (Homo sapiens, UniProt P34130 P34130:81-210); assay: cell_activity; TF-1
T1 sequence: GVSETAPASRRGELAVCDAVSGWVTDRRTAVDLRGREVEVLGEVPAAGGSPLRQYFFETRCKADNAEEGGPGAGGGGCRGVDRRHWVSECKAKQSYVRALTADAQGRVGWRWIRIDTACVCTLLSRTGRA

NT-3 (neurotrophin-3) = target: T2, NT-3 (neurotrophin-3) (Homo sapiens, UniProt P20783 P20783:139-257); assay: cell_activity; TF-1
T2 sequence: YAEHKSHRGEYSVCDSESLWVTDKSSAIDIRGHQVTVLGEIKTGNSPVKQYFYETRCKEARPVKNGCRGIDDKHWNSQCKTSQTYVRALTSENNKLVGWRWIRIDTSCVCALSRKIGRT

[1] = target: T3, NGF (nerve growth factor) (Homo sapiens, UniProt P01138 P01138:122-241); assay: cell_activity; neurite; TF-1 0.036
[2] = target: T3, NGF (nerve growth factor); assay: cell_activity; neurite; TF-1 0.047
[3] = target: T3, NGF (nerve growth factor); assay: cell_activity; neurite; TF-1 0.033
[4] = target: T3, NGF (nerve growth factor); assay: cell_activity; neurite; TF-1 0.027
[5] = target: T3, NGF (nerve growth factor); assay: cell_activity; neurite; TF-1 0.035
[6] = target: T3, NGF (nerve growth factor); assay: cell_activity; neurite; TF-1 0.024
[7] = target: T3, NGF (nerve growth factor); assay: cell_activity; neurite; TF-1 0.097
Procedure: (§1) With the neurite length per cell obtained by the addition of NGF alone as inhibitory activity 0%, and that of the cell obtained by NGF free culture for 2 days as inhibitory activity 100%, the inhibitory activity of the aptamer was calculated from the neurite length per cell obtained by culturing with the addition of NGF and the aptamer in mixture.
(§2) Two NGF receptor (human TrkA and human p75) genes were introduced into TF-1 cells (ATCC Number: CRL-2003), which is a human erythroleukemic cell line, by using a retrovirus vector to give cells that highly express two receptors simultaneously and stably. The cells were suspended in an RPMI-1640 medium containing 20% fetal bovine serum, and seeded in a white 96 well flat-bottom plate at 1000 cells (50 μL) per well. […] With the amount of luminescence per well obtained by the addition of NGF alone and culture of the cells for 3 days as inhibitory activity 0%, and that of the well obtained by NGF free culture for 3 days as inhibitory activity 100%, the inhibitory activity of the aptamer was calculated from the amount of luminescence per well obtained by culturing with the addition of NGF and the aptamer in mixture.

[8] = target: T3, NGF (nerve growth factor); assay: cell_activity; neurite; TF-1 0.266
[9] = target: T3, NGF (nerve growth factor); assay: cell_activity; neurite; TF-1 0.093
[10] = target: T3, NGF (nerve growth factor); assay: cell_activity; neurite; TF-1 0.039
Procedure: as §1, §2

[11] = target: T3, NGF (nerve growth factor); assay: cell_activity; neurite; TF-1 0.016
[12] = target: T3, NGF (nerve growth factor); assay: cell_activity; neurite; TF-1 0.043
[13] = target: T3, NGF (nerve growth factor); assay: cell_activity; neurite; TF-1 0.028
Procedure: as §1, §2

[14] = target: T3, NGF (nerve growth factor); assay: cell_activity; neurite; TF-1 0.081
[15] = target: T3, NGF (nerve growth factor); assay: cell_activity; neurite; TF-1 0.031
Procedure: as §1, §2

[16] = target: T3, NGF (nerve growth factor); assay: cell_activity; neurite; TF-1 0.075
[17] = target: T3, NGF (nerve growth factor); assay: cell_activity; neurite; TF-1 0.083
[18] = target: T3, NGF (nerve growth factor); assay: cell_activity; neurite; TF-1 0.087
[19] = target: T3, NGF (nerve growth factor); assay: cell_activity; neurite; TF-1 0.046
[20] = target: T3, NGF (nerve growth factor); assay: cell_activity; neurite; TF-1 0.030
[21] = target: T3, NGF (nerve growth factor); assay: cell_activity; neurite; TF-1 0.363
[22] = target: T3, NGF (nerve growth factor); assay: cell_activity; neurite; TF-1 0.071
[23] = target: T3, NGF (nerve growth factor); assay: cell_activity; neurite; TF-1 0.048
[24] = target: T3, NGF (nerve growth factor); assay: cell_activity; neurite; TF-1 0.073
[25] = target: T3, NGF (nerve growth factor); assay: cell_activity; neurite; TF-1 0.056
[26] = target: T3, NGF (nerve growth factor); assay: cell_activity; neurite; TF-1 0.025
[27] = target: T3, NGF (nerve growth factor); assay: cell_activity; neurite; TF-1 0.015
[28] = target: T3, NGF (nerve growth factor); assay: cell_activity; neurite; TF-1 0.042

T3 sequence (P01138 122-241, one chain of several): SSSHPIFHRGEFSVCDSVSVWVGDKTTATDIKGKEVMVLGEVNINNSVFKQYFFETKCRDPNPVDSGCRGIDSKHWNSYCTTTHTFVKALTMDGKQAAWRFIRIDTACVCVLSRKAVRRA

Binder: GGGUCCUGGAUAAGAGUUUCCGUCUCGUAUCCUGUUACCC (ssRNA, as 82(1) except 2'-OMe U11) [SEQ ID NO: 82(4)]
- IC50 (NT-4 (neurotrophin-4)): 3.37 nM
- IC50 (NT-3 (neurotrophin-3)): 30.4 nM
- IC50 [1]: 0.139 nM

Binder: GGGUCCUGGAUAAGAGTUUCCGUCUCGUAUCCTGUUACCC (ssRNA, as 82(25) except dT17,dT33,dU36) [SEQ ID NO: 163]
- IC50 [2]: 0.113 nM

Binder: GGGUCCUGGAUAAGAGUUUCCGUCUCGUAUCCUGUUACCC (ssRNA, as 82(1) except 2'-OMe U28) [SEQ ID NO: 82(10)]
- IC50 (NT-4 (neurotrophin-4)): < 3 nM
- IC50 (NT-3 (neurotrophin-3)): 35.3 nM
- IC50 [3]: 0.128 nM

Binder: GGGUCCUGGAUAAGAGUUUCCGUCUCGUAUCCUGUUACCC (ssRNA, as 82(1) except 2'-OMe C31) [SEQ ID NO: 82(12)]
- IC50 (NT-4 (neurotrophin-4)): < 3 nM
- IC50 (NT-3 (neurotrophin-3)): 34.7 nM
- IC50 [4]: 0.127 nM

Binder: GGGUCCUGGAUAAGAGUUUCCGUCUCGUAUCCUGUUACCC (ssRNA, as 82(1) except 2'-OMe C26) [SEQ ID NO: 82(9)]
- IC50 (NT-4 (neurotrophin-4)): < 3 nM
- IC50 (NT-3 (neurotrophin-3)): 34.8 nM
- IC50 [5]: 0.252 nM

Binder: GGGUCCUGGAUAAGAGUUUCCGUCUCGUAUCCUGUUACCC (ssRNA, as 82(25) except 2'-OMe A10) [SEQ ID NO: 82(45)]
- IC50 [6]: 0.037 nM

Binder: GGGUCCUGGAUAAGAGUUUCCGUCUCGUAUCCUGUUACCC (ssRNA, as 82(25) except dU7) [SEQ ID NO: 82(37)]
- IC50 [7]: 0.098 nM

Binder: GGGUCCUGGAUAAGAGUUUCCGUCUCGUAUCCUGUUACCC (ssRNA, as 82(48) without 5' idT; PS between G34 and U35) [SEQ ID NO: 82(63)]
- IC50 [8]: 0.046 nM

Binder: GGGUCCUGGAUAAGAGUUUCCGUCUCGUAUCCUGUUACCC (ssRNA, as 82(1) except dC5) [SEQ ID NO: 82(27)]
- IC50 [9]: 0.25 nM

Binder: GGGUCCUGGAUAAGAGTUUCCGUCUCGUAUCCTGUUACCC (ssRNA, as 82(25) except dT17,dT33,dU36, 2'-OMe A37) [SEQ ID NO: 165]
- IC50 [10]: 0.139 nM

B1: SEQ ID NO: 78(2) (ssRNA)
RNA: GGGUCCUGGCCAAGAGUUUCCGUCUCGUGGUCUGUUACCC
modifications: 2'-OMe G (G8,G34 2'-OH), dA, 2'-F C/U except 2'-OMe U4,C6,C21,U23,C26,U28,U31,C32,U35,C38-40; 5',3' idT
- IC50 [11]: 0.045 nM

Binder: GGGUCCUGGAUAAGAGUUUCCGUCUCGUAUCCUGUUACCC (ssRNA, as 82(1) except 2'-OMe U35) [SEQ ID NO: 82(15)]
- IC50 [12]: 0.127 nM
- IC50 (NT-4 (neurotrophin-4)): 8.35 nM
- IC50 (NT-3 (neurotrophin-3)): < 30 nM

Binder: GGGUCCUGGAUAAGAGUUUCCGUCUCGUAUCCUGUUACCC (ssRNA, as 82(1) except 2'-OMe C40) [SEQ ID NO: 82(18)]
- IC50 (NT-4 (neurotrophin-4)): < 3 nM
- IC50 (NT-3 (neurotrophin-3)): 38.7 nM
- IC50 [13]: 0.244 nM

Binder: GGGUCCUGGAUAAGAGUUUCCGUCUCGUAUCCUGUUACCC (ssRNA, as 82(48) without 5' idT; PS between A12 and A13) [SEQ ID NO: 82(60)]
- IC50 [14]: 0.034 nM

Binder: GGGUCCUGGAUAAGAGUUUCCGUCUCGUAUCCUGUUACCC (ssRNA, as 82(1) except 2'-OMe U4,C6,U11,C21,U23,C26,U30,C32,U35,C38-40) [SEQ ID NO: 82(20)]
- IC50 [15]: 0.244 nM
- IC50 (NT-3 (neurotrophin-3)): < 30 nM

Binder: GGGUCCUGGAUAAGAGUUUCCGUCUCGUAUCCUGUUACCC (ssRNA, as 82(1) except 2'-OMe C20) [SEQ ID NO: 82(5)]
- IC50 (NT-4 (neurotrophin-4)): < 3 nM
- IC50 (NT-3 (neurotrophin-3)): 51.2 nM
- IC50 [16]: 0.269 nM

Binder: GGGUCCUGGAUAAGAGUUUCCGUCUCGUAUCCUGUUACCC (ssRNA, as 82(1) except 2'-OMe U4,C6,U11,C21,U23,C26,U28,U30,C32,U35,C38-40) [SEQ ID NO: 82(22)]
- IC50 (NT-3 (neurotrophin-3)): < 30 nM
- IC50 [17]: < 0.1 nM

Binder: GGGUCCUGGAUAAGAGUUUCCGUCUCGUAUCCUGUUACCC (ssRNA, as 82(25) except 2'-OMe C20) [SEQ ID NO: 82(26)]
- IC50 [18]: 0.13 nM
- IC50 (NT-3 (neurotrophin-3)): < 30 nM

Binder: GGGUCCUGGAUAAGAGUUUCCGUCUCGUAUCCUGUUACCC (ssRNA, as 82(1) except 2'-OMe U30) [SEQ ID NO: 82(11)]
- IC50 (NT-4 (neurotrophin-4)): 3.42 nM
- IC50 (NT-3 (neurotrophin-3)): 38.1 nM
- IC50 [19]: 0.253 nM

Binder: GGGUCCUGGAUAAGAGUUUCCGUCUCGUAUCCUGUUACCC (ssRNA, as 82(1) except 2'-OMe U23) [SEQ ID NO: 82(7)]
- IC50 (NT-4 (neurotrophin-4)): 3.74 nM
- IC50 (NT-3 (neurotrophin-3)): < 30 nM
- IC50 [20]: 0.143 nM

Binder: GGGUCCUGUCUAAGAGUUUCCGUCUCGUAGACUGUUACCC (ssRNA, 2'-F C/U, dA, 2'-OH G) [SEQ ID NO: 111]
- IC50 [21]: 0.252 nM

Binder: GGGUCCUGGAUAAGAGUUUCCGUCUCGUAUCCUGUUACCC (ssRNA, as 82(1) except 2'-OMe U25) [SEQ ID NO: 82(8)]
- IC50 [22]: 0.284 nM

Binder: GGGUCCUGGAUAAGAGTUUCCGUCUCGUAUCCTGUUACCC (ssRNA, as 82(25) except dU7,dT17,dT33) [SEQ ID NO: 164]
- IC50 [23]: 0.132 nM

Binder: GGGUCCUGGAUAAGAGUUUCCGUCUCGUAUCCUGUUACCC (ssRNA, as 82(25) except dU25) [SEQ ID NO: 82(40)]
- IC50 [24]: 0.239 nM

Binder: GGGUCCUGGAUAAGAGUUUCCGUCUCGUAUCCUGUUACCC (ssRNA, as 82(25) except 2'-OMe A10,A15,A29,A37) [SEQ ID NO: 82(48)]
- IC50 [25]: 0.252 nM

Binder: GGGUCCUGGAUAAGAGUUUCCGUCUCGUAUCCUGUUACCC (ssRNA, as 82(1) except 2'-OMe C39) [SEQ ID NO: 82(17)]
- IC50 [26]: 0.127 nM
- IC50 (NT-4 (neurotrophin-4)): < 3 nM
- IC50 (NT-3 (neurotrophin-3)): < 30 nM

B2: SEQ ID NO: 78(3) (ssRNA)
RNA: GGGUCCUGGCCAAGAGUUUCCGUCUCGUGGUCUGUUACCC
modifications: 2'-OMe G (G8,G34 2'-OH), dA, 2'-F C/U except 2'-OMe U4,C6,C10,C11,C21,U23,C26,U28,C32,U35,C38-40; 5',3' idT
- IC50 [27]: 0.045 nM

Binder: GGGUCCUGGAUAAGAGUUUCCGUCUCGUAUCCUGUUACCC (ssRNA, as 82(25) except dU36) [SEQ ID NO: 82(41)]
- IC50 [28]: 0.084 nM

Source: US20140235701, “NGF APTAMER AND APPLICATION THEREOF” (RIBOMIC INC., published 2014)
